From patent US20070014810A1 (published 2007)

Biological target: T1, HLA-A*2601 (human)
T1 construct: purified HLA molecule
Assay: inhibition of 125I-labelled probe peptide binding to purified HLA, gel filtration; standard peptide

IC50: 1 nM
B1: standard peptide ETFGFEIQSY (peptide)
peptide: ETFGFEIQSY
